Values belong to the molecule of their own block, whether it stands above or below them.
Key:
M146L PS1 γ-secretase = biological target: T1, M146L PS1 γ-secretase (Homo sapiens, UniProt P49768, M146L); test: In vitro N1-Sb1 γ-secretase assay, membrane of N2a cells expressing M146L PS1; assay type: biochemical, murine; conditions: M146L PS1, N2a membrane
T1 construct: total membrane
Procedure: (§1) HeLa membrane fraction was isolated from HeLa-S3 cells (National Cell Culture Center). The cell pellet was resuspended in Buffer A (50 mM MES, 150 mM KCl, 5 mM CaCl2, 5 mM MgCl2) and lysed by passage through a French Press. N2a cells (murine neuroblastoma cells) over-expressing wild-type PS1, or mutants M146L or E280A, were obtained from Dr. Sangram Sisodia (University of Chicago, Chicago, Ill.). These cells were maintained in 50% Dulbecco's modified Eagle's medium high glucose, 50% Opti-Mem Reduced Serum Media, and 10% fetal calf serum. Cultured cells were pelleted by centrifugation and resuspended in hypotonic buffer (40 mM Tris, pH 7.4, 10 mM NaCl, 1 mM EDTA, and 0.5 mM DTT) for 20 minutes before being lysed with a dounce homogenizer. Nuclear debris from the HeLa and N2a cells were pelleted at 3000 rpm for 30 minutes. The resulting supernatants were ultracentrifuged at 100,000×g for 1 hour. The pellet that contained total cell membrane was resuspended in Buffer A. Mouse brains overexpressing knock-in wild type or M146V PS1 (gift from Dr. Hui Zheng, Amylin Pharmaceuticals, San Diego, Calif.) were homogenized with dounce homogenizer. The cell lysate was centrifuged at 3000 rpm for 30 minutes. The supernatants were ultracentrifuged at 100,000×g for 1 hour. Protein concentration was determined with the DC Protein Assay Kit according to the manufacturer's instructions (Bio-Rad, Hercules, Calif.).
(§2) An in vitro γ-secretase assay using a novel recombinant APP-derived substrate (termed “Sb4”) is disclosed in co-pending application U.S. Ser. No. 12/776,141. In the present assay based on a Notch-derived substrate, N1-Sb1 was incubated with the cell membrane fraction, prepared as described above, in the presence of 0.25% CHAPSO and 1×PIPES buffer (50 mM PIPES, pH 7.0, 150 mM KCl, 5 mM CaCl2, 5 mM MgCl2. The reaction was incubated at 37° C. for 2 hours. The Perkin Elmer AlphaScreen™ detection system was employed to assay for Notch cleavage. AlphaScreen (PerkinElmer Life and Analytical Sciences, Shelton, Conn.) is a bead based non-radioactive Amplified Luminescent Proximity Homogeneous Assay (ALPHA). When a biological interaction brings the beads together, a cascade of chemical reactions acts to produce a greatly amplified signal. Specifically, upon laser excitation, a photosensitizer in the “Donor” bead converts ambient (triplet) oxygen to the more reactive singlet state. The singlet state oxygen molecules diffuse into the solvent, and may react with a thioxene derivative in the Acceptor bead if nearby, generating chemiluminescence at 370 nm that further activates fluorophores contained in the same bead. The fluorophores subsequently emit light at 520-620 nm. In the absence of a specific biological interaction, the singlet state oxygen molecules produced by the donor bead go undetected without the close proximity of the acceptor bead. As a result no fluorescence signal at 520-620 nm is produced.
(§3) In the present system, antibody SM320, Protein A-conjugated acceptor beads, and Streptavidin-conjugated donor beads (PerkinElmer) were added to the reaction at a final concentration of 0.2 μg/ml, 2.5 μg/ml and 5 μg/ml, respectively (diagrammed in FIG. 5A). The reaction was incubated in the dark at room-temperature for 4 hours. The ALPHA signal was detected using the Envision plate reader (Perkin Elmer). The reactions were excited at 680 nm and signal was detected at 615 nm.
(§4) The effects of PS1 FAD mutations on Notch cleavage were determined using the new γ-secretase assay described in Example 2. The activities of two PS1 FAD mutations—PS1 M146L and E280A were compared against wild-type PS1 (WT), which has been previously studied (25). Total membrane was isolated from N2a cells that stably express WT, M146L, or E280A mutants. N1-Sb1 was incubated with these membranes and the resulting cN1-Sb1 was detected with SM320. […] The M146L and E280A mutants had 40% and 14% activity remaining, respectively, compared to the activity of the wild type (FIG. 7A). […]

[1] = biological target: T2, wild-type PS1 γ-secretase (Homo sapiens, UniProt P49768); test: In vitro N1-Sb1 γ-secretase assay, membrane of N2a cells expressing wild-type PS1; assay type: biochemical, murine; conditions: for reactivity (rate of γ-secretase cleavage) compared with WT substrate: WT PS1, N2a membrane
T2 construct: total membrane
Procedure: as §1, §2, §3, §4

E280A PS1 γ-secretase = biological target: T3, E280A PS1 γ-secretase (Homo sapiens, UniProt P49768, E280A); test: In vitro N1-Sb1 γ-secretase assay, membrane of N2a cells expressing E280A PS1; assay type: biochemical, murine; conditions: E280A PS1, N2a membrane
T3 construct: total membrane
Procedure: as §1, §2, §3, §4

[2] = biological target: T4, WT PS1 γ-secretase (knock-in mouse brain) (Mus musculus, UniProt P49769); test: In vitro N1-Sb1 γ-secretase assay, knock-in wild type PS1 mouse brain membrane; assay type: biochemical
T4 construct: Total membrane from these mouse brains was isolated; tissue gift from Dr. Hui Zheng; host or cells: mouse brain (PS1 knock-in), total membrane
Procedure: as §1, with “The pellet that contained total cell membrane was resuspended in Buffer A. Mouse brains overexpressing knock-in wild type or M146V PS1 (gift from Dr. Hui Zheng, Amylin Pharmaceuticals, San Diego, Calif.) were homogenized with dounce homogenizer. The cell lysate was centrifuged at 3000 rpm for 30 minutes. The supernatants were ultracentrifuged at 100,000×g for 1 hour.” left out
(§5) An in vitro γ-secretase assay using a novel recombinant APP-derived substrate (termed “Sb4”) is disclosed in co-pending application U.S. Ser. No. 12/776,141. […] As a result no fluorescence signal at 520-620 nm is produced.
as §3, with “The reaction was incubated in the dark at room-temperature for 4 hours.” left out
(§6) Mouse brain specimens were obtained that either expressed knock-in wild type PS1 or the M146V PS1 mutation (25, 26). […] The cN1-Sb1 cleavage product was detected with the new in-vitro γ-secretase assay of Example 2. […]

[3] = test system: M146V PS1 γ-secretase (knock-in mouse brain); test: In vitro N1-Sb1 γ-secretase assay, knock-in M146V PS1 mouse brain membrane; assay type: biochemical
Procedure: as §1, §5
as §3, with “The reaction was incubated in the dark at room-temperature for 4 hours.” left out
as §6

[4] = biological target: T5, γ-secretase (HeLa membrane) (Homo sapiens, UniProt P49768); test: In vitro N1-Sb1 γ-secretase assay (ALPHA detection with SM320), HeLa membrane; assay type: biochemical
T5 construct: host or cells: HeLa-S3 cells, total membrane fraction
Procedure: as §1
An in vitro γ-secretase assay using a novel recombinant APP-derived substrate (termed “Sb4”) is disclosed in co-pending application U.S. Ser. No. 12/776,141. In the present assay based on a Notch-derived substrate, N1-Sb1 was incubated with the cell membrane fraction, prepared as described above, in the presence of 0.25% CHAPSO and 1×PIPES buffer (50 mM PIPES, pH 7.0, 150 mM KCl, 5 mM CaCl2, 5 mM MgCl2. The reaction was incubated at 37° C. for 2 hours. The Perkin Elmer AlphaScreen™ detection system was employed to assay for Notch cleavage. AlphaScreen (PerkinElmer Life and Analytical Sciences, Shelton, Conn.) is a bead based non-radioactive Amplified Luminescent Proximity Homogeneous Assay (ALPHA). When a biological interaction brings the beads together, a cascade of chemical reactions acts to produce a greatly amplified signal. Specifically, upon laser excitation, a photosensitizer in the “Donor” bead converts ambient (triplet) oxygen to the more reactive singlet state. […] As a result no fluorescence signal at 520-620 nm is produced.
as §3, with “The reaction was incubated in the dark at room-temperature for 4 hours.” left out
HeLa membrane was incubated with N1-Sb1 substrate in the presence of 0.25% CHAPSO. The γ-secretase cleavage product (cN1-Sb1) was detected by the PerkinElmer proximity assay (ALPHA) using the SM320 antibody, Protein A-conjugated acceptor-beads (which bind SM320) and streptavidin-conjugated donor-beads (which bind biotin) (FIG. 5A). cN1-Sb1 levels in DMSO-treated assay was 10-fold higher than in the presence of the inhibitor L-685,458 (L458; structure shown below)-treated assay. […]

[5] = read-out: Km for N1-Sb1 cleavage

reactivity (rate of γ-secretase cleavage) compared with WT substrate (M146L PS1 γ-secretase): 20-30% | reactivity (rate of γ-secretase cleavage) compared with WT substrate [1]: 20-30% | reactivity (rate of γ-secretase cleavage) compared with WT substrate (E280A PS1 γ-secretase): 20-30%
B1: C1752A: N1-Sb1 substrate with P2 residue Cys 1752 substituted with Ala (protein, UniProt P46531 1733-1812, looked up, variant C1752A)
chain: QLHFMYVAAAAFVLLFFVGAGVLLSRKRRRQHGQLWFPEGFKVSEASKKKRREPLGEDSVGLKPLKNASDGALMDDNQNE
modifications: biotinylated AviTag
notes: N1-Sb1 substrate with P2 residue Cys 1752 substituted with Ala

reactivity (rate of γ-secretase cleavage) compared with WT substrate (M146L PS1 γ-secretase): 166.4±6.1% | reactivity (rate of γ-secretase cleavage) compared with WT substrate [1]: no effect | reactivity (rate of γ-secretase cleavage) compared with WT substrate ([2]; WT PS1 knock-in mouse brain): no effect | reactivity (rate of γ-secretase cleavage) compared with WT substrate (E280A PS1 γ-secretase): 185.5±7.4% | reactivity (rate of γ-secretase cleavage) compared with WT substrate ([3]; M146V knock-in PS1 mouse brain): 127.4±3.7%
B2: C1752M: N1-Sb1 substrate with P2 residue Cys 1752 substituted with Met (protein, UniProt P46531 1733-1812, looked up, variant C1752M)
chain: QLHFMYVAAAAFVLLFFVGMGVLLSRKRRRQHGQLWFPEGFKVSEASKKKRREPLGEDSVGLKPLKNASDGALMDDNQNE
modifications: biotinylated AviTag
notes: N1-Sb1 substrate with P2 residue Cys 1752 substituted with Met

reactivity (rate of γ-secretase cleavage) compared with WT substrate (M146L PS1 γ-secretase): 141.3±17.9% | reactivity (rate of γ-secretase cleavage) compared with WT substrate [1]: no effect | reactivity (rate of γ-secretase cleavage) compared with WT substrate (E280A PS1 γ-secretase): no effect
B3: C1752V: N1-Sb1 substrate with P2 residue Cys 1752 substituted with Val (protein, UniProt P46531 1733-1812, looked up, variant C1752V)
chain: QLHFMYVAAAAFVLLFFVGVGVLLSRKRRRQHGQLWFPEGFKVSEASKKKRREPLGEDSVGLKPLKNASDGALMDDNQNE
modifications: biotinylated AviTag
notes: N1-Sb1 substrate with P2 residue Cys 1752 substituted with Val

N1-Sb1 cleavage activity remaining compared to wild type PS1 (M146L PS1 γ-secretase): 40% | N1-Sb1 cleavage activity remaining compared to wild type PS1 (E280A PS1 γ-secretase): 14% | Notch (N1-Sb1) cleavage activity compared to wild-type PS1 ([3]; M146V PS1 mouse brain membrane): less activity
B4: N1-Sb1: biotinylated recombinant substrate: human Notch1 fragment (residues 1733-1812) with AviTag (protein)
chain: PAQLHFMYVAAAAFVLLFFVGCGVLLSRKRRRQHGQLWFPEGFKVSEASKKKRREPLGEDSVGLKPLKNASDGALMDDNQN
modifications: biotinylated; Notch substrate N1Sb1 (NTM2)
notes: biotinylated recombinant substrate: human Notch1 fragment (residues 1733-1812) with AviTag
Vmax for N1-Sb1 cleavage (M146L PS1 γ-secretase): 163 U/μg/min | Km (M146L PS1 γ-secretase; [5]): 0.049 µM | Vmax for N1-Sb1 cleavage ([1]; PS1 wild-type, N2a membrane): 293 U/μg/min | Km ([1]; PS1 wild-type, N2a membrane, read-out: Km for N1-Sb1 cleavage): 0.07 µM | Vmax for N1-Sb1 cleavage ([2]; WT PS1 mouse brain membrane): 52 U/μg/min | Km ([2]; WT PS1 mouse brain membrane, read-out: Km for N1-Sb1 cleavage): 0.06 µM | Vmax of N1-Sb1 cleavage ([4]; arbitrary units): 38 Unit/μg/min | Km ([4]; read-out: apparent Km of N1-Sb1 cleavage by γ-secretase): 0.15 ± 0.03 µM | Vmax for N1-Sb1 cleavage (E280A PS1 γ-secretase): 49 U/μg/min | Km (E280A PS1 γ-secretase; [5]): 0.05 µM | Vmax for N1-Sb1 cleavage ([3]; M146V PS1 mouse brain membrane): 40 U/μg/min | Km ([3]; M146V PS1 mouse brain membrane, read-out: Km for N1-Sb1 cleavage): 0.048 µM

Source: patent US9632088B2, “Methods and compositions for gamma-secretase assay” (MEMORIAL SLOAN-KETTERING CANCER CENTER, priority 2010, dated 2017)
